{"source": "paper PMC7510979", "about": "“Kinetic and structural insights into enzymatic mechanism of succinic semialdehyde dehydrogenase from Cyanothece sp. ATCC51142” (PLoS ONE, 2020)", "molecules": {"B1": {"name": "cce4228 protein (succinic semialdehyde dehydrogenase, SSADH) (Crocosphaera subtropica ATCC 51142; S420A) (protein)", "chain": "MGIATVNPATGETVKIFEPITVDEIEVKLALAETTFRQYRKISLEQRSQWLKAAADILERDQQKLGEIMTLEMGKPIKGAIAEAKKCALVCRYYADNAAEFLKDVEAQTDASRSFIRYQPLGVILAVMPWNFPLWQVFRFAAPALMAGNVGILKHASNVPQCALAVEAILAEAGFPAGCFQTFLIGASEVESIINDPRVKAATLTGSEPAGASLASAAGKQIKKTVLELGGSDPFIVLESADIEAAATTAVTARMLNNGQSCIAAKRFILAESIADEFQALLLEKFKALKVGDPMEEDTDIGPLANASMLLELNQQVQETVTKGGTILLGGHIISDRPGYFYPPTILTDIPVDSPGYYDEFFGPVALLFRVKDIDQAIELANDTIFGLGASAWTNDSAEQDRLIEDIEAGCVFINGMVKADPRLPFGGIKRSGYGRELSIEGMQEFLNVKTVWIK", "notes": "full ORF in pET-28a, N-terminal 6xHis kept, E. coli BL21(DE3), Ni-NTA; native ca. 109 kDa"}, "B2": {"name": "cce4228 protein (succinic semialdehyde dehydrogenase, SSADH) (Crocosphaera subtropica ATCC 51142; S157E) (protein)", "chain": "B1 chain with S157E, A420S", "notes": "as for B1"}, "B3": {"name": "cce4228 protein (succinic semialdehyde dehydrogenase, SSADH) (Crocosphaera subtropica ATCC 51142; R139A) (protein)", "chain": "B1 chain with R139A, A420S", "notes": "as for B1"}, "B4": {"name": "cce4228 protein (succinic semialdehyde dehydrogenase, SSADH) (Crocosphaera subtropica ATCC 51142; K154A) (protein)", "chain": "B1 chain with K154A, A420S", "notes": "as for B1"}}, "key": {"[1]": {"molecular_target": "T1, cce4228 protein (succinic semialdehyde dehydrogenase, SSADH) (Crocosphaera subtropica, UniProt B1WSJ7)", "T1 construct": "gene gabD; full ORF in pET-28a, N-terminal 6xHis kept, E. coli BL21(DE3), Ni-NTA; native ca. 109 kDa", "T1 sequence (B1WSJ7 1-455)": "B1 chain with A420S", "assay": "initial velocity at […] nm", "format": "biochemical", "settings": "MgCl2, 50 mM CHES pH 9.0, 25°C, table marks wild-type data as from ref. 26, read-out: wild-type^e, cited from earlier work"}, "[2]": {"molecular_target": "succinic semialdehyde dehydrogenase cce4228 protein from Cyanothece sp. ATCC51142 (wild-type, recombinant) (Cyanothece sp. ATCC51142)", "assay": "SEC; size exclusion chromatography of purified recombinant cce4228 with standard protein ladders; native mass compared with the subunit mass"}, "[3]": {"molecular_target": "T1, cce4228 protein (succinic semialdehyde dehydrogenase, SSADH)", "assay": "initial velocity at […] nm, excess-substrate inhibition fit", "format": "biochemical", "settings": "0.5 mM NADP+, MgCl2, 50 mM CHES pH 9.0, 25°C; table marks wild-type data as from ref. 26; read-out: wild-type^e; cited from earlier work"}, "[4]": {"substrate": "O=CCCC(=O)O", "assay": "purified protein", "format": "biochemical, Crocosphaera subtropica", "settings": "MgCl2, 50 mM CHES pH 9.0, 25°C"}, "[5]": {"substrate": "NC(=O)c1ccc[n+]([C@@H]2O[C@H](COP(=O)(O)OP(=O)(O)OC[C@H]3O[C@@H](n4cnc5c(N)ncnc54)[C@H](O)[C@@H]3O)[C@@H](O)[C@H]2O)c1", "assay": "purified protein", "format": "biochemical, Crocosphaera subtropica", "settings": "0.02 mM SSA, MgCl2, 50 mM CHES pH 9.0, 25°C, varied: cofactor"}, "[6]": {"substrate": "NC(=O)c1ccc[n+]([C@@H]2O[C@H](COP(=O)(O)OP(=O)(O)OC[C@H]3O[C@@H](n4cnc5c(N)ncnc54)[C@H](OP(=O)(O)O)[C@@H]3O)[C@@H](O)[C@H]2O)c1", "assay": "purified protein", "format": "biochemical, Crocosphaera subtropica", "settings": "0.02 mM SSA, MgCl2, 50 mM CHES pH 9.0, 25°C, varied: cofactor"}}, "note": "Where a chain is given by its changes, count along the chain named. Names may count otherwise."}
{"molecule": "NC(=O)c1ccc[n+]([C@@H]2O[C@H](COP(=O)(O)OP(=O)(O)OC[C@H]3O[C@@H](n4cnc5c(N)ncnc54)[C@H](O)[C@@H]3O)[C@@H](O)[C@H]2O)c1", "note": "[NAD^+]", "values": [{"measurement": "Km", "setting": "[1]; 0.02 mM SSA", "value": "1700 ± 200", "unit": "µM"}]}
{"molecule": "NC(=O)c1ccc[n+]([C@@H]2O[C@H](COP(=O)(O)OP(=O)(O)OC[C@H]3O[C@@H](n4cnc5c(N)ncnc54)[C@H](OP(=O)(O)O)[C@@H]3O)[C@@H](O)[C@H]2O)c1", "note": "[NADP^+]", "values": [{"measurement": "Km", "setting": "[1]; 0.2 mM SSA", "value": "34 ± 2", "unit": "µM"}]}
{"molecule": "succinic semialdehyde dehydrogenase cce4228 protein from Cyanothece sp. ATCC51142 (wild-type, recombinant) (enzyme)", "values": [{"measurement": "stoichiometry N", "setting": "[2]", "value": 2}]}
{"molecule": "O=CCCC(=O)O", "note": "[succinic semialdehyde]", "values": [{"measurement": "Km", "setting": "[3]", "value": "8 ± 3", "unit": "µM"}]}
{"molecule": "B1", "values": [{"measurement": "Km", "setting": "[4]; NADP+ as cofactor", "value": "70 ± 10", "unit": "µM"}, {"measurement": "kcat", "setting": "[4]; NADP+ as cofactor", "value": "9.3 ± 0.9", "unit": "s⁻¹"}]}
{"molecule": "B2", "values": [{"measurement": "Km", "setting": "[4]; 10 mM NADP+", "value": "2.8 ± 0.7", "unit": "µM"}, {"measurement": "kcat", "setting": "[4]; 10 mM NADP+", "value": "1.5 ± 0.1", "unit": "s⁻¹"}, {"measurement": "kcat/Km", "setting": "[4]; 10 mM NADP+", "value": 535000, "unit": "M⁻¹ s⁻¹"}, {"measurement": "Km", "setting": "[5]", "value": "510 ± 40", "unit": "µM"}, {"measurement": "Km", "setting": "[6]", "value": "1100 ± 200", "unit": "µM"}]}
{"molecule": "B3", "values": [{"measurement": "Km", "setting": "[4]; NADP+ as cofactor", "value": "112 ± 8", "unit": "µM"}, {"measurement": "kcat", "setting": "[4]; NADP+ as cofactor", "value": "0.54 ± 0.01", "unit": "s⁻¹"}]}
{"molecule": "B4", "values": [{"measurement": "Km", "setting": "[4]; 8 mM NADP+", "value": "20 ± 10", "unit": "µM"}, {"measurement": "kcat", "setting": "[4]; 8 mM NADP+", "value": "0.1 ± 0.05", "unit": "s⁻¹"}, {"measurement": "kcat/Km", "setting": "[4]; 8 mM NADP+", "value": 5000, "unit": "M⁻¹ s⁻¹"}, {"measurement": "Km", "setting": "[5]", "value": "1500 ± 400", "unit": "µM"}, {"measurement": "Km", "setting": "[6]", "value": "6100 ± 1500", "unit": "µM"}]}
